According to publication PMC8890701 (Science Advances, 2022):

Columns and labels:
[1] = biological target: S. pneumoniae LicB (S. pneumoniae); experiment: cryo-EM structure
[2] = biological target: T1, S. pneumoniae LicB (Streptococcus pneumoniae TIGR4 (ATCC …)); experiment: cryo-EM structure
T1 chain: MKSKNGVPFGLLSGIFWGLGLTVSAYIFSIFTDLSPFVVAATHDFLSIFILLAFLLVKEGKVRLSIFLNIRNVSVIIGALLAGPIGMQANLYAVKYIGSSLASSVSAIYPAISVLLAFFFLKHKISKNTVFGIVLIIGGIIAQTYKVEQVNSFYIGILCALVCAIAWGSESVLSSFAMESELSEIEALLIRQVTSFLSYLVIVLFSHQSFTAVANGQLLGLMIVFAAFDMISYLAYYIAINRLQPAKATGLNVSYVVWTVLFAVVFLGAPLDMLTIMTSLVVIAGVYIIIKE

Molecule: S. pneumoniae LicB (natural protein)
- stoichiometry N [1]: 2

B1: sybody C (VHH)
VHH: QVQLVESGGGSVQAGGSLRLSCAASGTIHAIGYLGWFRQAPGKEREGVAALTTYDGWTYYADSVKGRFTVSLDNAKNTVYLQMNSLKPEDTALYYCAAADDGWMFPLYHNHYEYWGQGTQVTVSA
- binding result [2]: binds
